Experimental data taken from patent US20180305450A1 (AstraZeneca / MedImmune, published 2018).
Where a chain is given by its changes, count along the chain named.

B1: PaB670080 scFv (scFv, V domains shown)
VH: EVQLLESGGGLVQPGGSLRLSCAASGFTFSSYAMNWVRQAPGKGLEWVSTISYSGSLISYADSVKGRFTISRDNSKNTLYLQMNSLRAEDTAVYYCARINNDPMDVWGQGTLVTVSS
VL: SIELTQPPSVSVSPGQTASITCSGDNLGKKYVQWYQQKPGQSPVLVIYDDSNRPSGIPERFSGSNSGNTATLTISGTQAMDEADYYCQTWDGHHHTGETNHFGGGTKLTVL
notes: purified scFv
B2: PaB670089 scFv (scFv, V domains shown)
VH: B1 VH with S54H, L57H, Y60H, S63H, K65H
VL: B1 VL with H93N, H94P, H95T, H101V
notes: purified scFv; also called ZZ1ODR-C05
B3: PaB670084 scFv (scFv, V domains shown)
VH: B1 VH with Y53H, S56H, S59H, Y60H, V64H
VL: B1 VL with H93N, H94P, H95T, H101V
notes: purified scFv; also called ZZ1PXA-A05
B4: PaB670079 scFv (scFv, V domains shown)
VH: B1 VH
VL: B1 VL with T89H, H95T
notes: purified scFv; also called ZZ1OZJ-G05
B5: PaB670067 scFv (scFv, V domains shown)
VH: B1 VH
VL: B1 VL with Q88H, D91H, G92H, H94P, H95T, T96H, T99H, H101V
notes: purified scFv; also called ZZ1KXE-A05
B6: PaB670078 scFv (scFv, V domains shown)
VH: B1 VH
VL: B1 VL with Q88H, T89H, D91H, H94P, T99H, H101V
notes: purified scFv; also called ZZ1OZJ-G03
B7: PaB670088 scFv (scFv, V domains shown)
VH: B1 VH with S56H, S59H, S63H, V64H, K65H
VL: B1 VL with H93N, H94P, H95T, H101V
notes: purified scFv; also called ZZ1ODR-B11
B8: PaB670082 scFv (scFv, V domains shown)
VH: B1 VH with Y53H, G55H, D62H, K65H
VL: B1 VL with H93N, H94P, H95T, H101V
notes: purified scFv; also called ZZ1OZA-D02
B9: PaB670068 scFv (scFv, V domains shown)
VH: B1 VH
VL: B1 VL with H95T, T96H, T99H, N100H, H101V
notes: purified scFv; also called ZZ1KXE-B01
B10: PaB670090 scFv (scFv, V domains shown)
VH: B1 VH with S54H, S56H, L57H, Y60H, S63H, G66H
VL: B1 VL with H93N, H94P, H95T, H101V
notes: purified scFv; also called ZZ1ODR-F02
B11: PaB670087 scFv (scFv, V domains shown)
VH: B1 VH with S54H, L57H, S63H, V64H, G66H
VL: B1 VL with H93N, H94P, H95T, H101V
notes: purified scFv; also called ZZ1ODR-B05
B12: PaB670048 scFv (scFv, V domains shown)
VH: B1 VH with N100H, N101H, V106H
VL: B1 VL with H93N, H94P, H95T, H101V
notes: purified scFv; also called ZZ1KX4-E11
B13: PaB670071 scFv (scFv, V domains shown)
VH: B1 VH
VL: B1 VL with Q88H, D91H, G92H, T99H
notes: purified scFv; also called ZZ1L3F-A02
B14: PaB670073 scFv (scFv, V domains shown)
VH: B1 VH
VL: B1 VL with T89H, D91H, H94P, T96H, T99H, H101V
notes: purified scFv; also called ZZ1L3F-H03

Key:
[1] = molecular target: T1, recombinant biotinylated human PAR2 extracellular domain (residues 1-75), N-terminal AviTag, C-terminal Flag … (human, UniProt P55085 26-75, biotin on the AviTag (enzymatic biotinylation)); test: HTRF competition with Par0067 IgG, scFv
T1 construct: also called Bio-human-PAR2 ECD; human PAR2 ECD; not shown: N-terminal AviTag (Avidity LLC); C-terminal Flag and poly Histidine tags
Protocol: (§1) 5 μl/well of the appropriate pH 4.44 nM Par0067 IgG solution was added to all wells of the relevant assay plate (pH 7.4 and pH 6.0).
(§2) Test scFv Preparation/Addition: [0172] a) For parallel single point HTS of crude un-purified bacterial lysate scFv samples at both pH 7.4 and pH 6.0 samples were first pre-diluted to 40% of their neat concentration using either pH 7.4 or pH 6.0 assay buffer as appropriate. Subsequently 5 μl of 40% pre-diluted sample was then transferred into the appropriate assay (pH 7.4 or pH 6.0) in order to give a final assay sample concentration of 10.0% (in the 20 μl final assay volume). The parent Par0067 scFv was included in all HTS experiments as a control as were specific pH dependent antibodies as those became available (for benchmarking). […] Duplicate 11 point 1:3 serial dilutions then were prepared on 384 well polypropylene Greiner plates in each of the two assay buffers (pH 7.4 & 6.0). 5 μl per well of each serial dilution was transferred from the relevant pH scFv dilution plate to the corresponding assay plate (pH 7.4 and pH 6.0). 5 μl of the appropriate pH assay buffer was added to the total and non-specific wells. The parent Par0067 purified scFv was included in all multipoint dose response IC₅₀ experiments as a control as were specific pH dependent purified scFv as those became available (for benchmarking).
(§3) For multipoint dose response curves % Specific Binding values were plotted versus test purified antibody concentration (scFv or IgG). IC₅₀ values were determined via a sigmoidal dose response inhibition variable slope curve fit (4 parameter logistic equation) using Graphpad Prism Software.

[2] = molecular target: T1, recombinant biotinylated human PAR2 …; test: HTRF competition with Par0067 IgG, pH 6.0, scFv
Protocol: as §1, §2, §3

[3] = molecular target: T1, recombinant biotinylated human PAR2 …; test: HTRF competition with Par0067 IgG, pH 7.4, scFv
Protocol: as §1, §2, §3

T1 sequence (P55085 26-75): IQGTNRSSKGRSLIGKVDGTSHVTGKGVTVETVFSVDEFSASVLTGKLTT

Row | Binder | Fold IC50 (pH 6.0 v pH 7.4) [1] [fold] | Fold IC50 pH 7.4 (Variant v Par0067) [1] [fold] | IC50 [2] [nM] | IC50 [3] [nM]
1 | B1 | 9.5 | 5 | 158 | 16.6
2 | B2 | 4.5 | 9.1 | 134 | 29.9
3 | B3 | 5.2 | 16.5 | 283 | 54.5
4 | B4 | 11.1 | 13.4 | 490 | 44.2
5 | B5 | 7.9 | 4.4 | 113 | 14.4
6 | B6 | 9.6 | 10.1 | 319 | 33.3
7 | B7 | 3.8 | 9 | 115 | 29.8
8 | B8 | 3.1 | 7.7 | 77.9 | 25.4
9 | B9 | 5.8 | 23.6 | 448 | 77.8
10 | B10 | 3.8 | 6.8 | 85.5 | 22.6
11 | B11 | 3.2 | 12.4 | 131 | 40.9
12 | B12 | 9.6 | 4.4 | 139 | 14.5
13 | B13 | 4.2 | 30.7 | 425 | 101
14 | B14 | 5.9 | 21.8 | 428 | 72.1
